In US20210315933A1 (TCR2 THERAPEUTICS, published 2021):

Molecular target: T1, human IL13Rα2 on cells (human, UniProt Q14627 27-380)
T1 construct: whole, on cells; also called hIL13Rα2
T1 sequence (looked up): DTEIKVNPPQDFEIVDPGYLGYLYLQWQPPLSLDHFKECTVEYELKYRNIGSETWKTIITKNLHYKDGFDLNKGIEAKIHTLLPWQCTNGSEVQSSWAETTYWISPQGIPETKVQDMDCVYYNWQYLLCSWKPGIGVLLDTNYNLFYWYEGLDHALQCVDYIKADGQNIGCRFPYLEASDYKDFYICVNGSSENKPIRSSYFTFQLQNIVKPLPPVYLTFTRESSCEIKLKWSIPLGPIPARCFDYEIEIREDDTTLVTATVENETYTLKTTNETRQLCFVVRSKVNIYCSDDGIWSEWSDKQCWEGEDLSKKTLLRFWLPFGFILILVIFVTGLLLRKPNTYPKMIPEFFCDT
Assay: flow cytometry control; cell line not stated

Row | Flow Cytometry MFI | Substance
1 | 90.4 MFI | 2o Ab (secondary antibody alone, flow cytometry control)
2 | 21.4 MFI | Isotype Control (flow cytometry control) (antibody)
